{
  "source": "patent US6685912B2",
  "about": "“Post-labeling stabilization of radiolabeled proteins and peptides” (Rhomed Incorporated, priority 1996, dated 2004)",
  "format_in_all_cases": "physicochemical",
  "key": {"[1]": {"assay": "Cysteine displacement of Re-188 from Re-188-RC-160 (ITLC)", "conditions": "addition of the ascorbate post-labeling", "experimental": "Radiolabeling kits were prepared using aseptic techniques, with each kit prepared in a 10 ml serum vial using a 2 ml liquid fill. The liquid fill contained 200 μg of RC-160 peptide in 45 mM sodium potassium tartrate, 10 mM potassium hydrogen phthalate buffer, pH 5.0, in 5 mM stannous tartrate with 1% maltose added as a freeze-drying excipient. Each kit contained a maximum of 1.19 μg of tin. After filling, the vials were lyophilized, the head space gas filled with nitrogen, and the vials stoppered and crimped. Lyophilized vials were then stored refrigerated at 2-80C. To label a kit, 4-5 ml of 188Re-perrhenate solution containing 10-100 mCi was added to the kits, and the kits then heated in a boiling water bath for 30-45 minutes. Following a brief cooling period, 2 ml of ascorbic acid for Injection, U.S.P., was added to the labeled kit through a 0.22 micron filter. […] The amount of displacement was expressed as % of total radioactivity at the solvent front. […] Selected organs as shown in FIG. 4 were resected and weighed and the associated radioactivity was determined as a percentage of injected dose pr gram of tissue. The percent dose from blood, bone and muscle was calculated assuming 7, 8.2 and 40% of total body weight for these tissues. […]"}, "[2]": {"assay": "Elution of Re-188-RC-160 from C18 SepPak columns (step-gradient of acidified ethanol) after adding post-labeling compounds"}, "[3]": {"assay": "Labeling efficiency of Re-188-RC-160 with ascorbic acid present during labeling (C18 SepPak, RP-HPLC, TLC)", "source_text": "The results obtained by analytical RP-HPLC were confirmed by TLC studies and by isocratic elutions from C-18 SepPak columns. […] The RP-HPLC results were confirmed by TLC. […] The addition of ascorbate, or ascorbate/sulfite solutions, maximized the reduction of the peptide RC-160, which is present in excess, without compromising ^188Re-RC-160. The radiolabeling kit could be formulated with an excess of stannous ions and RC-160 to accommodate a variety of labeling situations. In the presence of ^188Re, the RC-160 and stannous ions interact to result in what is believed to be metal-cyclized ^188Re-RC-160. […] Since ^188Re is produced essentially carrier-free from a 188W/^188Re generator, it is hypothesized that excess stannous ions will reduce the RC-160 not complexed to ^188Re. […] The net result is a stable radiolabeled peptide with a very high specific activity."}, "[4]": {"assay": "Elution of Re-188-RC-160 from C18 SepPak columns (step-gradient of acidified ethanol) after adding post-labeling compounds", "experimental": "FIG. 1B is an elution profile of Re-188-RC-160 from a C18-SepPak column using a step-gradient of acidified ethanol.\n(§1) Radiolabeling kits were prepared using aseptic techniques, with each kit prepared in a 10 ml serum vial using a 2 ml liquid fill. The liquid fill contained 200 μg of RC-160 peptide in 45 mM sodium potassium tartrate, 10 mM potassium hydrogen phthalate buffer, pH 5.0, in 5 mM stannous tartrate with 1% maltose added as a freeze-drying excipient. Each kit contained a maximum of 1.19 μg of tin. After filling, the vials were lyophilized, the head space gas filled with nitrogen, and the vials stoppered and crimped. Lyophilized vials were then stored refrigerated at 2-80C. To label a kit, 4-5 ml of 188Re-perrhenate solution containing 10-100 mCi was added to the kits, and the kits then heated in a boiling water bath for 30-45 minutes. Following a brief cooling period, 2 ml of ascorbic acid for Injection, U.S.P., was added to the labeled kit through a 0.22 micron filter. Two types of parenteral ascorbate were used with similar results, Ascorbic Acid for Injection, U.S.P., 500 mg/2 ml, and Ascorvit™ (a preparation of ascorbate) 100 mg (Jenapharm, Germany). In this study, RC-160 was radiolabeled at pH 5.0 for 30 minutes at 90° C. and ascorbate was added postlabeling. The temperature effect is shown in FIGS. 2A and 2B: 19 minutes for 37° C. and 21 minutes for 900C. Also shown in FIG. 1B is an elution profile of Re-188-RC 160 from a C18 column using a step-gradient of acidified ethenol. […] FIG. 6. […] FIG. 7 and FIGS. 1A and 1B. […] Briefly, aliquots of 100 μl cysteine dissolved in phosphate buffer saline (pH 7.4 with 1 M NaOH) were diluted in separate microfuge tubes to result in a doubling dilution. 100 μl of Re188-RC-160 was added to each tube and mixed by inversion. The samples were incubated at 45 minutes at 37° C. or 90° C. A 10 μl aliquot of each sample was then spotted on heat-treated ITLC strip and chromatographed in PBS, pH 7.4 until the solvent was 0.5 cm from the strip top. The amount of displacement was expressed as % of total radioactivity at the solvent front. The results for two experiments conducted respectively at 37° and 90° C. are shown at FIG. 3. In a related manner, comparative biodistribution profiles of Re-188-RC-160 at 2 hours post injection into the tail vein of adult, female BALB/c mice (≈25 g weight) (n≧5/group) with each animal receiving 0.2 ml containing approximately 4 μCi. Selected organs as shown in FIG. 4 were resected and weighed and the associated radioactivity was determined as a percentage of injected dose pr gram of tissue. The percent dose from blood, bone and muscle was calculated assuming 7, 8.2 and 40% of total body weight for these tissues. 37° C. and 90° C. were the two temperatures at which radio labeling was performed.", "remark": "listed apart in the source"}, "[5]": {"assay": "Post-labeling stability of radiolabeled RC-160 (uncoupling of isotope) by TLC and RP-HPLC", "experimental": "as §1"}, "[6]": {"conditions": "post-labeling sodium bisulfite (1 mg/ml, pH 5.5)"}, "[7]": {"conditions": "post-labeling sodium sulfite (1 mg/ml, pH 7.4)"}, "[8]": {"conditions": "NO ASCORBATE during labeling, 20 mCi Re-188"}, "[9]": {"conditions": "PLUS ASCORBATE: 400 μg ascorbic acid introduced along with the Re-188, 20 mCi"}, "[10]": {"conditions": "post-labeling Ascorbate for Injection, USP"}, "[11]": {"conditions": "post-labeling Ascorvit formulation"}, "[12]": {"conditions": "post-labeling ascorbate (50 mg/ml, pH 6.0)"}},
  "data": [
    {"substance": "Re-188-RC-160: RC-160, cyclic somatostatin analogue D-Phe-Cys-Tyr-D-Trp-Lys-Val-Cys-Trp-NH2, radiolabeled with 188Re using stannous kit", "values": [
      {"measurement": "Re-peptide bond strength (cysteine displacement)", "setting": "[1]", "value": "not altered"},
      {"measurement": "% of total radioactivity assayed, 80-100% ethanol fraction", "setting": "[2]; post-labeling SALINE", "value": 4.0, "unit": "%"},
      {"measurement": "% of total radioactivity assayed, 40-60% ethanol fraction", "setting": "[2]; [6]", "value": 94.0, "unit": "%"},
      {"measurement": "% of total radioactivity assayed, 80-100% ethanol fraction", "setting": "[2]; [6]", "value": 1.8, "unit": "%"},
      {"measurement": "% of total radioactivity assayed, retained on column", "setting": "[2]; [6]", "value": 3.3, "unit": "%"},
      {"measurement": "% of total radioactivity assayed, 40-60% ethanol fraction", "setting": "[2]; [7]", "value": 35.8, "unit": "%"},
      {"measurement": "% of total radioactivity assayed, 80-100% ethanol fraction", "setting": "[2]; [7]", "value": 3.8, "unit": "%"},
      {"measurement": "% of total radioactivity", "setting": "[3]; [8]", "value": 2.1, "unit": "%"},
      {"measurement": "% of total radioactivity, 10% ethanol", "setting": "[3]; [8]", "value": 0.9, "unit": "%"},
      {"measurement": "% of total radioactivity, 85% ethanol", "setting": "[3]; [8]", "value": 97.0, "unit": "%"},
      {"measurement": "% of total radioactivity", "setting": "[3]; [9]", "value": 1.4, "unit": "%"},
      {"measurement": "% of total radioactivity, 10% ethanol", "setting": "[3]; [9]", "value": 52.4, "unit": "%"},
      {"measurement": "% of total radioactivity, 85% ethanol", "setting": "[3]; [9]", "value": 46.2, "unit": "%"},
      {"measurement": "% of total radioactivity assayed, 0-20% ethanol fraction", "setting": "[4]; [10]", "value": 0.7, "unit": "%"},
      {"measurement": "% of total radioactivity assayed, 40-60% ethanol fraction", "setting": "[4]; [10]", "value": 91.5, "unit": "%"},
      {"measurement": "% of total radioactivity assayed, 80-100% ethanol fraction", "setting": "[4]; [10]", "value": 1.3, "unit": "%"},
      {"measurement": "% of total radioactivity assayed, retained on column", "setting": "[4]; [10]", "value": 6.6, "unit": "%"},
      {"measurement": "% of total radioactivity assayed, 0-20% ethanol fraction", "setting": "[4]; [11]", "value": 1.0, "unit": "%"},
      {"measurement": "% of total radioactivity assayed, 40-60% ethanol fraction", "setting": "[4]; [11]", "value": 94.0, "unit": "%"},
      {"measurement": "% of total radioactivity assayed, 80-100% ethanol fraction", "setting": "[4]; [11]", "value": 1.8, "unit": "%"},
      {"measurement": "% of total radioactivity assayed, retained on column", "setting": "[4]; [11]", "value": 3.3, "unit": "%"},
      {"measurement": "% of total radioactivity assayed, 0-20% ethanol fraction", "setting": "[4]; post-labeling SALINE", "value": 0.8, "unit": "%"},
      {"measurement": "% of total radioactivity assayed, 40-60% ethanol fraction", "setting": "[4]; post-labeling SALINE", "value": 85.4, "unit": "%"},
      {"measurement": "% of total radioactivity assayed, retained on column", "setting": "[4]; post-labeling SALINE", "value": 9.7, "unit": "%"},
      {"measurement": "% of total radioactivity assayed, 0-20% ethanol fraction", "setting": "[4]; [12]", "value": 0.7, "unit": "%"},
      {"measurement": "% of total radioactivity assayed, 40-60% ethanol fraction", "setting": "[4]; [12]", "value": 96.4, "unit": "%"},
      {"measurement": "% of total radioactivity assayed, 80-100% ethanol fraction", "setting": "[4]; [12]", "value": 0.9, "unit": "%"},
      {"measurement": "% of total radioactivity assayed, retained on column", "setting": "[4]; [12]", "value": 1.8, "unit": "%"},
      {"measurement": "% of total radioactivity assayed, 0-20% ethanol fraction", "setting": "[4]; [6]", "value": 1.0, "unit": "%"},
      {"measurement": "% of total radioactivity assayed, 0-20% ethanol fraction", "setting": "[4]; [7]", "value": 7.0, "unit": "%"},
      {"measurement": "% of total radioactivity assayed, retained on column", "setting": "[4]; [7]", "value": 3.5, "unit": "%"},
      {"measurement": "stabilization post-labeling", "setting": "[5]; 50 mg/ml ascorbate compared with 250 mg/ml of ascorbate", "value": "yielded the same results"},
      {"measurement": "free rhenium in HPLC profile", "setting": "[5]; 30 hours post-labeling, 65 mCi of 188Re, ascorbate added after labeling", "value": "very little free rhenium could be found"},
      {"measurement": "stability post-labeling", "setting": "[5]; ascorbate not added, TLC, confirmed by RP-HPLC", "value": "stable for only up to two hours post-labeling"},
      {"measurement": "stability post-labeling (uncoupling of 188Re from the peptide)", "setting": "[5]; post-labeling addition of ascorbate", "value": "essentially eliminate the uncoupling and stabilize"},
      {"measurement": "stabilization post-labeling", "setting": "[5]; sodium sulfite (1 mg/ml pH 7.4), sodium bisulfite (1 mg/ml, pH 5.5), or mixtures of ascorbate with sodium sulfite, sodium bisulfite or EDTA", "value": "also effective in stabilizing"}
    ]}
  ]
}
